Assay results published in the DeepSol protein solubility set.

test: soluble on expression in E. coli; label from the status in PepcDB or PDB records

Sequence | soluble on expression in E. coli
MSDIEAVVVSDLHLGYEEEMNLHGLFLPRIQRDHITSVMDRIIERYNPQRIIINGDFKQEFSKNLPSEWTDVLYFIDRYDDRDLIFIRGNHDNYLATILSKKNIGMMDFYEDDRYFIYHGDRNMGIKKITILGHEHPSLVLRDRVGGVYKLPAFAFNFRRNVIITPSMSFFSSGTDLSQSLLSEEHFTPALKGMKPSCFRIFAITDEFGLVDFGYLDDLHSSGEQQIRDR | not soluble
MSNKNKSYDYVIIGGGSAGSVLGNRLSEDKDKEVLVLEAGRSDYFWDLFIQMPAALMFPSGNKFYDWIYSTDEEPHMGGRKVAHARGKVLGGSSSINGMIYQRGNPMDYEGWAEPEGMETWDFAHCLPYFKKLEKTYGAAPYDKFRGHDGPIKLKRGPATNPLFQSFFDAGVEAGYHKTPDVNGFRQEGFGPFDSQVHRGRRMSASRAYLHPAMKRKNLTVETRAFVTEIHYEGRRATGVTYKKNGKLHTIDANEVILSGGAFNTPQLLQLSGIGDSEFLKSKGIEPRVHLPGVGENFEDHLEVYIQHKCKEPVSLQPSLDIKRMPFIGLQWIFTRTGAAASNHFEGGGFVRSNNEVDYPNLMFHFLPIAVRYDGQKAAVAHGYQVHVGPMYSNSRGSLKIKSKDPFEKPSIRFNYLSTEEDKKEWVEAIRVARNILSQKAMDPFNGGEISPGPEVQTDEEILDWVRRDGETALHPSCSAKMGPASDPMAVVDPLTMKVHGMENLRVVDASAMPRTTNGNIHAPVLMLAEKAADIIRGRKPLEPQYIDYYKHGVHDENEGAIEVKPYAK | not soluble
MKQVCVLGNGQLGRMLRQAGEPLGIAVWPVGLDAEPTAVPVQQSVITAEIERWPETALTRELARHPAFVNRDVFPIIADRLTQKQLFDKLGLATAPWQLLTSTDEWSGIFDRLGELAIIKRRVGGYDGRGQWRLRADETGQLPDDCYGECIVERGIHFSGEVSLVGARAHDGSTVFYPLTHNLHQDGILRTSVAFPQANAEQQEQAESMLSAIMQALNYVGVMAMECFITPEGLLINELAPRVHNSGHWTQNGASISQFELHLRAITGLPLPAPVINAPSVMINLIGSELNYDWLKLPLVHLHWYDKAVRPGRKVGHLNLTDSDTSRLSATLEALSPLLPGEYASGIIWAQSKLK | not soluble
MDELRELLKAEQQAIKIYKEVLKKAKEGDEQELARLIQEIVKAEKQAVKVYKEAAEKARNPEKRQVIDKILEDEEKHIEWLKAASKQGNAEQFASLVQQILQDEQRHVEEIEKKN | soluble
MNEDLTNSTEYKRYGHDYAKYPRRIAEELQHYGGNSFANFFRDEGVLYKEILCDACDHLKVNYNEESATSLIEQNMLSKLLKDSLEKMSRREIKELCNELGMTNIDKVIGENKQVLIASTLTLFKAGGSHSYALAVSVADAMVRQTLGHVMWWVK | not soluble
MGVSGYGHDDLGRETLDKVFAEVMGAEAAAVRVQFVSGTHAIACALFGVLRPGDEMLAVVGSPYDTLEEVIGLRGQGQGSLIEFGIKYRQLELTSQGSIDWQTLSTSITDHTRLVLIQRSCGYSWRPSLSIADIEKVVNLVKQQNPHTVCFVDNCYGEFIETQEPTHVGADLMAGSLIKNPGGTIVTAGGYVAGRADLVEAAACRLTAPGIGSYGGATFLEHHHHHH | soluble
MTLTVSPTAARTPAEEKARFEGNKLAKRLARETTRAIADYNMIEAGDKVMVCLSGGKDSYALLDILLSLQKRAPFAFEIIAVNLDQKQPGFPPEILPGYLRALGVPFHIETQDTYSIVTRVIPEGKTMCSLCSRLRRGILYRVASELGATKIALGHHRDDILGTFFLNLFYGGKAKGMPPKLVSDDGRHTVIRPLAYVPESDLIAYAQFKQFPIIPCNLCGSQENLKRKEVGRMIQEWDRKHPGRSWNVFNALSRVVPSHLMDRDLFDFVGLKPTGVADAGGDTAFDQIDPEPDTAGPGCASDAPAGQADGMAEQRVVFR | not soluble
MKRQRVVVKIGSSSLTDPKGGLCHDKLFDHVEAIAYLKQLGHDVILITSGAVAAGFGPLGYPARPTTIAGKQAAAAVGQSLLMQAYSSAFAQFGFTAAQLLLTRSDFYSRERFRNLFATITTLLENGAVPIINENDSVSIEELTFGDNDMLSALVAGFLHADALILLTDINGLYDANPKTNPQAKKYAFLPEITDEMIEAAGGIGSAVGTGGMRSKLLAARKALSFGVSVFIGAGSGKEKLADILAGKGDGTYIGAPFPKQMQMRKQWIAYHAPVAGTVTVDSGAEEALLMRGKSLLPAGVTAVSGDFHAMDVVDVVNEKGITIGRGQVYYAAADLEKVKGLPSEEARQYSYLHRPEVIHRDNWVTLRKESVSK | not soluble
MGSDKIHHHHHHMTEEKESLAGRQWLVDKVDNSIKEGQTAIPAIENGICQRCGSSCWVRLPSGFLYCRACVGLGRLDEGKLLVRQAAGSHYPARAGMTWTGQLQERQEGVSRFLLEKFAAKEDCLVEAVTGAGKTEMIFPLLAEAFSCGCRVAIATPRIDVVNELYPRLVAAFGEVEIGKYHGREEKEAANEQLVICTTHQLLKYYQAFDLLIIDEIDSFPYAGNPQLHFAAGNAVKKTGSQVFLTATPPEDLLKAARQGKLAIVRLNRRFHCYPLPVPRLDLYVKPFLTKGRLHPKLARRIKMAAKSGHPLLVFLPRIAQMPQYFAAVKRLLPDLRLATVYAQDPDRLEKVEKFRKGDLDLLLTTTILEGGVTLSMSG | not soluble
MTFLDRTPDIILTMNEEGVIVSQNETARRVFGDVGGKIYSEICKDDTCSVGDRYYSMVAIKGFRRTIVVGRDITERIRLEKELEDRERKFKALAELSPAGILVHHQGTILFVNEALCQIHGYTREELLNRKVWDLIHPDYHDLARAMMQKRLEGEKPVYELKTIRKDGSERWVLVAGGAIDWDGKKSVMAFAIDITDKKMIEQRLAEREELFRSIFNISPAGLYILVGGKFKLVNPAFERITGYSAEELVGMKSLEIVAEEDREFVRRKAIEMLKGRETEPYKYRVVRKDGKIRWVYENVASIAYEGERAALGSVIDITEIEEERKRLEELTSMLELINKTLRHDVLNALTSAMALLEMGIEESNKDYLNKALTSINRAVSIVRNMRAFEDAVKSGELRCIDVGELVSEVAKSFENVSVKGEGRALADEGLRSVVENIVNNAFIHSGTDRVEITVSEGKEWCEIRIADFGIGIPDEIKQRIFEEGFKYGKAAQTGLGLFIARKIVERYAGEIWVEDNEPKGSVFVIRLKKC | not soluble
MSSPYILVLYYSRHGATAEMARQIARGVEQGGFEARVRTVPAVSTECEAVAPDIPAEGALYATLEDLKNCAGLALGSPTRFGNMASPLKYFLDGTSSLWLTGSLVGKPAAVFTSTASLHGGQETTQLSMLLPLLHHGMLVLGIPYSEPALLETRGGGTPYGASHFAGADGKRSLDEHELTLCRALGKRLAETAGKLGS | soluble
MKSVQDALYNWLTIHIVAKARPHDAAARDTASFFRAILENDFGVTAVDAVKDETNGQYIVEYVRGGETRAACFPLELAEAMWRQIEAEPEKYG | not soluble
MGSDKIHHHHHHMSTLENVHASPIHFMSKPAEIEHTQRPLNEASHAPGYIYGDPDVLRREKERIFMKDWLCIAHVDELPNPGDFVTHTVIDEPVLIVRNRSGVLQAFYNQCRHRGVEVAEGRGNAKIFKCPYHAWSYDLDGKLIGVPFMKEAQGFDQKNCSLKPVRLDTWGGFIHISFDPDAEPLSSYMAEYEQEFGMLRQGELRLGLRWETDFDCNWKFVYENLMDIYHVGVTHADTIGRYQDQSSYRYLQLPRGRASIHYRAKTMSETGSSLFGRLPWIDDDSFARIGYLPPNLTMLARCDYVRPVTHWPTAVNRTHSVAYFLFPEDKIADPQFQEKIQTYVKFVEQVLDEDRGMILSLQRAMNTRGFEPGRMSFMENAIHHALGYHLERLFGPQSA | not soluble
MSELSDEEISLQALYDPSKKVIGDIEDGIFSTPELQPRIKTGIDNLQLVTKLVNQMRLFSSNEQIEDVPTNSLPYLLVPCFLGILHQNLMTEPGLKLDELRKSKIYMRNFLDRLRDLCLITTRLPWEDEDTEEQNLKEKPKLAVEEIRRLKLERHKKKQELKMAELRIQKQLEAVSIDEQNLRELYITQLLFWSERCYEELQAIDDELPLLKMMAERASHPHRHPAPPPATKTVPTLKPFIITRDAQQKQVFGLGYPGIPAMSVDEWYHQKFGHNPQNAPQSSAPAGAEAQESEEEVDDDEARAKAMRWDEYKDDHRRGWGNMHNKG | soluble
MVINSINWLFSEVVAMAVGEKITISVIKADVGGWPGHSRVHPALIEKAREVLSEAQKNGTIIDFYVTYAGDDLQLIMTHKKGVDSPEVHGLAWEAFKKATEVAKELGLYGAGQDLLKDAFSGNVRGLGPSVAEMEITLRKSEPIVTFHLDKTEPGAFNLPIFRMFADPFNTAGLVIDPKMHMGFRFEIWDILEHKKVIMSSPEEMYDILALIGAKSRYVIKRVYPKEGHPVPKDEPVAVVSTEKLYEVAGEYVGKDDPVAIVRAQSGLPALGEVLEPFAFPHLVSGWMRGSHNGPLMPVPLKYATPTRFDGPPRAVALGWQISPEGKLIGPVDLFDDPAFDWARQKALEITDYIRRHGPFEPHRLPSEEMEYTTLPGVLEKLKDRFEPIE | soluble
MIDTLKNIKVKDVMTKNVITAKRHEGVVEAFEKMLKYKISSLPVIDDENKVIGIVTTTDIGYNLIRDKYTLETTIGDVMTKDVITIHEDASILEAIKKMDISGKKEEIINQLPVVDKNNKLVGIISDGDIIRTISKII | soluble
GPHMDAATLTYDTLRFAEFEDFPETSEPVWILGRKYSIFTEKDEILSDVASRLWFTYRKNFPAIGGTGPTSDTGWGCMLRCGQMIFAQALVCRHLGRDWRWTQRKRQPDSYFSVLNAFIDRKDSYYSIHQIAQMGVGEGKSIGQWYGPNTVAQVLKKLAVFDTWSSLAVHIAMDNTVVMEEIRRLCRTSVPCAGATAFPADSDRHCNGFPAGAEVTNRPSPWRPLVLLIPLRLGLTDINEAYVETLKHCFMMPQSLGVIGGKPNSAHYFIGYVGEELIYLDPHTTQPAVEPTDGCFIPDESFHCQHPPCRMSIAELDPSIAVGFFCKTEDDFNDWCQQVKKLSLLGGALPMFELVEQQPSHLACPDVLNLSLDSSDVERLERFFDSEDEDFEILSL | soluble
MTFLKEYVIVSGASGFIGKHLLEALKKSGISVVAITRDVIKNNSNALANVRWCSWDNIELLVEELSIDSALIGIIHLATEYGHKTSSLINIEDANVIKPLKLLDLAIKYRADIFLNTDSFFAKKDFNYQHMRPYIITKRHFDEIGHYYANMHDISFVNMRLEHVYGPGDGENKFIPYIIDCLNKKQSCVKCTTGEQIRDFIFVDDVVNAYLTILENRKEVPSYTEYQVGTGAGVSLKDFLVYLQNTMMPGSSSIFEFGAIEQRDNEIMFSVANNKNLKAMGWKPNFDYKKGIEELLKRL | not soluble
MTTHLSNVAPDLQNYLNAIGEPEHPVLTRLREKTGHHRMGKMAIAREQAAVLVWLAKLIRAEKYLEIGVFTGYSSTALALALPEHGRITACDINVTFTDTARQVWNEAGVAHKISLHLQPALLTLDDLIAQGEAGSYDLALIDADKPPTPQYFERCLKLVRQGGIIAIDNILLNGRVMREAASDAPPSVGILKDFNQNLPNDPRIVPITLPVGDGLTLLLKK | not soluble
MGSDKIHHHHHHLFNYFQLNDPKDFKHLLNMAGQDILINGKPARALITNTNLTESKDNRNITTLENIESGYLIDYDDGKWLVISEVSGKRYNKYKGIMQKCHNTLTVNIAGILHRVPYVVTNKVNLNIDVTYYLTVLENEIYILVANNTINSNIQLNDIYKIGRFNYKVISMDDISRPGLLLMKMKYSEEGQVLPNYSITILNGDTLTTDTATPVQLNVEQKDGETVLTNPLPMVFTSSDISIATVDSTGMVTPVSVGNVTITVSFESDTTVNDSIVITVEEVEVPETYTLELIGDTEIKQNQTKTYTAVKKNGLGDIVEGATFDFSIDPETTPADKYTLTVLDNTQCSIKANGATYYINLIATDRTDNSLTVSKRIWLKPLF | not soluble
